Experimental data published in patent US20230125500A1, “ANGIOSTATIN NEUTRALIZING PEPTIDES DERIVED FROM ATP SYNTHASE ALPHA SUBUNIT” (The Governors of the University of Alberta, priority 2021, published 2023).

B1: angiostatin (protein)
chain: YLSECKTGNGKNYRGTMSKTKNGITCQKWSSTSPHRPRFSPATHPSEGLEENYCRNPDNDPQGPWCYTTDPEKRYDYCDILECEEECMHCSGENYDGKISKTMSGLECQAWDSQSPHAHGYIPSKFPNKNLKKNYCRNPDRELRPWCFTTDPNKRWELCDIPRCTTPPPSSGPTYQCLKGTGENYRGNVAVTVSGHTCQHWSAQTPHTHNRTPENFPCKNLDENYCRNPDGKRAPWCHTTNSQVRWEYCKIPSCDSSPVSTEQLAPTAPPELTPVVQDCYHGDGQSYRGTSSTTTTGKKCQSWSSMTPHRHQKTPENYPNAGLTMNYCRNPDADKGPWCFTTDPSVRWEYCNLKKCSGTEA

Key:
fibrinolysis = test: In vitro fibrinolysis assay in citrated human plasma; type: biochemical; settings: recalcified human plasma, thrombin + tPA 1 μg/ml, 2 hours 37° C.; combined peptides each 1 μM, aprotinin 10 μM
Protocol: Fibrinolysis Assays. Citrated human plasma (platelet-free) was recalcified to a final free Ca^2+ concentration of 2.5 mM. After recalcification, plasma was incubated with a peptide 1, 2, 3, or with combined a peptides 1-3 (each 1 μM), or with negative control 8 peptide (3 μM) or with aprotinin (10 μM) as positive control for inhibiting fibrinolysis. To initiate clotting ice-cold thrombin (0.3 U/ml) was added to each well, while to initiate fibrinolysis human tissue plasminogen activator (1 μg/ml; Sigma) was added. After 2 hours incubation at 37° C. the absorbance at 405 nm was measured using a Bio-Rad iMark microplate reader and the results were expressed as percent fibrinolysis.

eNOS protein expression = test: Immunoblot of eNOS in angiostatin-treated hypoxic HMVEC-C; type: cell-based, Human; settings: 48 hours hypoxic conditions, peptides tested with angiostatin
Protocol: (§1) Cell culture and hypoxia. Cardiac-derived Human microvascular endothelial cells from (HMVEC-C) were obtained from Lonza (Walkersville, Md., USA) and cultured in a humidified atmosphere at 37° C. and 5% CO2 in EGM-2 MV. Depending on the donor, the primary endothelial cells were serum starved for 4-16 h in EBM-2 and 0.5% FBS prior to exposure to hypoxic conditions. The time of serum starvation prior to treatment was titrated to induce approximately 40% apoptosis following treatment under normoxic conditions. Hypoxia was induced by exposing endothelial cells for 48 h under serum-starved conditions in a Billups-Rothenberg chamber continuously gassed with 95% N2-5% CO2.
(§2) Immunoblots. HMVEC-L lysates were subjected to 8% sodium dodecyl sulfate-polyacrylamide gel electrophoresis Blots were blocked overnight in TTBS and 5% non-fat milk and then cut at the 50 KDa across the membrane. Subsequently the >50 KDa upper membrane was incubated with either rabbit anti-human MMP-14 (MT1-MMP) (1 μg/ml) (Millipore) (Etobicoke, ONT, Canada), or mouse anti-eNOS (1:1000) (Abcam) (Toronto, ONT, Canada) for 2 h. Anti-mouse (1:10,000), or anti-rabbit (1:5000) horseradish peroxidase-conjugated antibodies were used as the secondary antibodies (Sigma, Oakville, ON, Canada). […] Blot bands were quantified using ImageJ software (Bio-Rad, Mississauga, ON, Canada) and expressed as arbitrary units of density per β-actin.

MMP-2 protein expression = test: Gelatin zymography of MMP-2 in HMVEC-C lysates; type: cell-based, Human; settings: 48 hours hypoxic conditions, peptides tested with angiostatin
Protocol: as §1
Gelatin zymography. Gelatin zymography was used to assess MMP-2 levels within HMVEC-C lysates. Zymography was performed using 8% SDS-PAGE with copolymerized gelatin (2 mg/ml). After electrophoresis, gels were washed 3× for 20 min in 2% Triton X-100. Next, gels were washed 2· for 20 min in developing buffer (50 mM Tris-HCl pH 7.6, 150 mM NaCl, 5 mM CaCl2), and 0.05% NaN3) and then incubated in developing buffer at 37° C. overnight. Gels were stained with 0.05% Coomassie Brilliant Blue and then destained in a 4% ethanol and 8% acetic acid solution. Gelatinolytic activity was detected as transparent bands against a blue background of Coomassie-stained gelatin. […]

[1] = system: MT1-MMP protein expression; test: Immunoblot of MT1-MMP (MMP-14) in angiostatin-treated hypoxic HMVEC-C; type: cell-based, Human; settings: 48 hours hypoxic conditions, peptides tested with angiostatin
Protocol: as §1, §2

angiostatin kringles 1-4 = molecular target: T1, angiostatin kringles 1-4 (Homo sapiens, UniProt P00747); test: Immunoprecipitation of angiostatin K1-4 after incubation with trypsinized ATP synthase subunit α, mass spectrometry of bound peptides; type: binding; settings: for abundance based on peptide spectral matches (PSMs): angiostatin-bound peptides after immunoprecipitation; for binding to angiostatin (immunoprecipitation, mass spectrometry): peptides from trypsin digest of recombinant F1F0 ATP synthase subunit α incubated with purified angiostatin kringles 1-4
T1 construct: the resulting peptides incubated with purified angiostatin kringles 1-4
T1 sequence (P00747 79-466 limits assumed): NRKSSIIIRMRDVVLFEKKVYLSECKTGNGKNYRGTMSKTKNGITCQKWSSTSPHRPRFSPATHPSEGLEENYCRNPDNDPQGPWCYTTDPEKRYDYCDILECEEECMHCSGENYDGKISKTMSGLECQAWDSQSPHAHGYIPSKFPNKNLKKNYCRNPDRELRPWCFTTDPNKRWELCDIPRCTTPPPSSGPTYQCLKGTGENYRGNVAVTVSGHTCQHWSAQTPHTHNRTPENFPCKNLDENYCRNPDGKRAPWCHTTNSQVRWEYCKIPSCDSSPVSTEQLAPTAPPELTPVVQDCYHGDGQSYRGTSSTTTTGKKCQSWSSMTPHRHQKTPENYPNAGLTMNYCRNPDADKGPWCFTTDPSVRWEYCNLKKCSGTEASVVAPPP
Protocol: Trypsin digestion of ATP synthase subunit α. Recombinant F1F0 ATP synthase subunit α was digested with trypsin, and following heat-inactivation of trypsin the resulting peptides incubated with purified angiostatin kringles 1-4. Subsequently, the angiostatin was immunoprecipitated and submitted for mass spectroscopy analysis to identify any potential bound peptides of subunit α.

HMVEC-C = test: Endothelial cell migration assay under hypoxia; type: cell-based, Human; settings: hypoxia 48 hours, VEGF 10 ng/ml chemoattractant, angiostatin 600 nM; combined peptides 1 μM each
Protocol: Migration assays. 24-well plate inserts with […] pores (Falcon Corning, Tewksbury, Mass., USA) were coated with 1 mg/ml gelatin and incubated at 37° C. for 2 hours to allow gelatin to solidify. Excess gelatin was aspirated and inserts were left to dry overnight under UV light, then gently washed once with 100μl of PBS. Once approximately 80% confluent, HMVEC-C were serum starved for 8 hours in 0.5% FBS in EBM-2. Cells were trypsinized and seeded into the top chamber of the gelatin-coated inserts at a concentration of 25 000 cells/insert. Recombinant VEGF (10 ng/ml) in 0.5% FBS in EBM-2 was added to the corresponding bottom chambers to serve as a chemoattractant. HMVEC-C were treated with PBS control, angiostatin (600 nM), angiostatin (600 nM)+a peptide 1 through 3 (3 μM), angiostatin (600 nM)+negative-control 6 peptide (3 μM), and angiostatin (600 nM)+combined a peptide 1-3 (1 μM each). The system was incubated in hypoxia (95% N2, 5% CO2) for 48 hours. After incubation, the top layer of each insert was scraped gently using a Q-tip to remove the non-migrated cells. Migrated cells at the bottom of the insert were fixed in 4% formaldehyde in PBS for five minutes, followed by staining using Diffquik stain (Siemens Healthcare Diagnostics Inc., Newark, Del., USA). […] Cells were counted using ImageJ software, and expressed as migration percent of PBS control.

| Molecule | eNOS levels (immunoblot) (eNOS protein expression) | MMP-2 levels (gelatin zymography) (MMP-2 protein expression) | MT1-MMP levels (immunoblot) [1] | abundance based on peptide spectral matches (PSMs) (angiostatin kringles 1-4) | binding to angiostatin (immunoprecipitation, mass spectrometry) (angiostatin kringles 1-4) | also measured |
| --- | --- | --- | --- | --- | --- | --- |
| aprotinin | – | – | – | – | – | inhibition of fibrinolysis (fibrinolysis): fibrinolysis inhibitor |
| VPTLQVLRPGLVV [delta peptide, reference compound] | failed to significantly increase | failed to significantly increase | failed to significantly increase | – | – | – |
| AVDSLVPIGR [Alpha peptide 3] | – | – | – | medium abundance | bound to angiostatin | – |
| TSIAIDTIINQK [Alpha peptide 2] | – | – | – | medium abundance | bound to angiostatin | – |
| TGTAEMSSILEER [Alpha peptide 1] | – | – | – | high abundance | bound to angiostatin | – |
| B1 | significant reduction | significant reduction | significant reduction | – | – | HMVEC-C migration (HMVEC-C): decreased |
